Experimental data taken from PMC13016609, “UV irradiation alters TFAM binding specificity and compaction of DNA”.

Legend:
[1] = biological target: T1, TFAM (no MTS) (Homo sapiens, UniProt Q00059 43-246); assay: fluorescence anisotropy; Hill n 2.77±0.17; FP: 25 mM HEPES, 10 mM Mg(OAc)2, 25 mM NaOAc, 75 mM KOAc, pH 7.5, 1 nM DNA, TFAM 0-15 nM diluted on ice (read temperature not stated); AFM oligos: on ice, 2 min; details: protein: recombinant; label: 5' 6-FAM on strand 1; blunt
T1 sequence: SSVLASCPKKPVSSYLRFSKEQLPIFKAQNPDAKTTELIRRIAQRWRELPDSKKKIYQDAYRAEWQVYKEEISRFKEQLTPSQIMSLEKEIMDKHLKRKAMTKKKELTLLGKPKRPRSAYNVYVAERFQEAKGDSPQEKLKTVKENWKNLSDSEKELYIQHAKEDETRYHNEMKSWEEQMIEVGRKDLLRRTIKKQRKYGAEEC

[2] = biological target: T1, TFAM (no MTS); assay: fluorescence anisotropy; +UVC; Hill n 2.18±0.14; FP: 25 mM HEPES, 10 mM Mg(OAc)2, 25 mM NaOAc, 75 mM KOAc, pH 7.5, 1 nM DNA, TFAM 0-15 nM diluted on ice (read temperature not stated); AFM oligos: on ice, 2 min; details: protein: recombinant; label: 5' 6-FAM on strand 1; blunt
[3] = biological target: T1, TFAM (no MTS); assay: fluorescence anisotropy; Hill n 2.15±0.24; FP: 25 mM HEPES, 10 mM Mg(OAc)2, 25 mM NaOAc, 75 mM KOAc, pH 7.5, 1 nM DNA, TFAM 0-15 nM diluted on ice (read temperature not stated); AFM oligos: on ice, 2 min; details: protein: recombinant; label: 5' 6-FAM on strand 1; blunt
[4] = biological target: T1, TFAM (no MTS); assay: fluorescence anisotropy; +UVC; Hill n 1.81±0.05; FP: 25 mM HEPES, 10 mM Mg(OAc)2, 25 mM NaOAc, 75 mM KOAc, pH 7.5, 1 nM DNA, TFAM 0-15 nM diluted on ice (read temperature not stated); AFM oligos: on ice, 2 min; details: protein: recombinant; label: 5' 6-FAM on strand 1; blunt
[5] = biological target: T1, TFAM (no MTS); assay: fluorescence anisotropy; Hill n 2.84±0.14; FP: 25 mM HEPES, 10 mM Mg(OAc)2, 25 mM NaOAc, 75 mM KOAc, pH 7.5, 1 nM DNA, TFAM 0-15 nM diluted on ice (read temperature not stated); AFM oligos: on ice, 2 min; details: protein: recombinant; label: 5' 6-FAM on strand 1; blunt
[6] = biological target: T1, TFAM (no MTS); assay: fluorescence anisotropy; +UVC; Hill n 2.27±0.26; FP: 25 mM HEPES, 10 mM Mg(OAc)2, 25 mM NaOAc, 75 mM KOAc, pH 7.5, 1 nM DNA, TFAM 0-15 nM diluted on ice (read temperature not stated); AFM oligos: on ice, 2 min; details: protein: recombinant; label: 5' 6-FAM on strand 1; blunt
[7] = biological target: T1, TFAM (no MTS); assay: fluorescence anisotropy; Hill n 3.85±0.49; FP: 25 mM HEPES, 10 mM Mg(OAc)2, 25 mM NaOAc, 75 mM KOAc, pH 7.5, 1 nM DNA, TFAM 0-15 nM diluted on ice (read temperature not stated); AFM oligos: on ice, 2 min; details: protein: recombinant; label: 5' 6-FAM on strand 1 (FP); blunt
[8] = biological target: T1, TFAM (no MTS); assay: fluorescence anisotropy; +UVC; Hill n 2.94±0.40; FP: 25 mM HEPES, 10 mM Mg(OAc)2, 25 mM NaOAc, 75 mM KOAc, pH 7.5, 1 nM DNA, TFAM 0-15 nM diluted on ice (read temperature not stated); AFM oligos: on ice, 2 min; details: protein: recombinant; label: 5' 6-FAM on strand 1; blunt
[9] = biological target: T1, TFAM (no MTS); assay: fluorescence anisotropy; Hill n 3.04±0.19; FP: 25 mM HEPES, 10 mM Mg(OAc)2, 25 mM NaOAc, 75 mM KOAc, pH 7.5, 1 nM DNA, TFAM 0-15 nM diluted on ice (read temperature not stated); AFM oligos: on ice, 2 min; details: protein: recombinant; label: 5' 6-FAM on strand 1; blunt

B1: COX2_229 (dsDNA)
DNA 1: GCCCCCATTCGTATAATAATTACATCACAAGAC
DNA 2: GTCTTGTGATGTAATTATTATACGAATGGGGGC
Kd [1]: 3.94 ± 0.03 nM

B2: COX2_229 +UVC (dsDNA)
DNA 1: GCCCCCATTCGTATAATAATTACATCACAAGAC
DNA 2: GTCTTGTGATGTAATTATTATACGAATGGGGGC
modifications: UVC 1500 J/m2 photolesions (positions undefined)
Kd [2]: 4.87 ± 0.35 nM

B3: TRNT_10 (dsDNA)
DNA 1: CTTGTAGTATAAACTAATACACCAGTCTTGTAA
DNA 2: TTACAAGACTGGTGTATTAGTTTATACTACAAG
Kd [3]: 4.24 ± 0.12 nM

B4: TRNT_10 +UVC (dsDNA)
DNA 1: CTTGTAGTATAAACTAATACACCAGTCTTGTAA
DNA 2: TTACAAGACTGGTGTATTAGTTTATACTACAAG
modifications: UVC 1500 J/m2 photolesions (positions undefined)
Kd [4]: 7.79 ± 0.8 nM

B5: ND6_87 (dsDNA)
DNA 1: TTCCTACACTATTAAAGTTTACCACAACCACCA
DNA 2: TGGTGGTTGTGGTAAACTTTAATAGTGTAGGAA
Kd [5]: 5.2 ± 0.32 nM

B6: ND6_87 +UVC (dsDNA)
DNA 1: TTCCTACACTATTAAAGTTTACCACAACCACCA
DNA 2: TGGTGGTTGTGGTAAACTTTAATAGTGTAGGAA
modifications: UVC 1500 J/m2 photolesions (positions undefined)
Kd [6]: 7.63 ± 0.21 nM

B7: ND1_353 (dsDNA)
DNA 1: ATTATTATAATAAACACCCTCACCACTACAATC
DNA 2: GATTGTAGTGGTGAGGGTGTTTATTATAATAAT
Kd [7]: 7.56 ± 0.34 nM

B8: ND1_353 +UVC (dsDNA)
DNA 1: ATTATTATAATAAACACCCTCACCACTACAATC
DNA 2: GATTGTAGTGGTGAGGGTGTTTATTATAATAAT
modifications: UVC 1500 J/m2 photolesions (positions undefined)
Kd [8]: 7.66 ± 0.88 nM

B9: ND1_288 (dsDNA)
DNA 1: CTCCACACTAGCAGAGACCAACCGAACCCCCTT
DNA 2: AAGGGGGTTCGGTTGGTCTCTGCTAGTGTGGAG
Kd [9]: 3.41 ± 0.03 nM
